B1: POU domain, class 4, transcription factor 3, residues 185 to 256; numbered along this chain, Q15319 (parent)
chain: RELEAFAERFKQRRIKLGVTQADVGAALANLKIPGVGSLSQSTICRFESLTLSHNNMIALKPVLQAWLEEAE

± gives the uncertainty stated by the source.

The variants in the data set derive from B1. The data set is described as follows: abundance fitness (aPCA) (normalised: wild type 0, dead -1); higher = more abundant; growth selection in yeast, the domain comes from the species named. Particulars: Homo sapiens.
In the case of C45P, the abundance fitness is -0.25 ± 0.05.

With C45S, the abundance fitness is -0.042 ± 0.053. For C45F the value was -0.001 ± 0.038; for C45M, -0.048 ± 0.083; for C45H, 0.053 ± 0.079. For C45Q, the abundance fitness is 0.003 ± 0.063. For A29K the value was 0.023 ± 0.056.

On to A29E, for which the abundance fitness came to 0.006 ± 0.18.

On to A29F, for which the abundance fitness was -0.086 ± 0.12.

Consider A29W, for which the abundance fitness was -0.181 ± 0.074. For A29C the value was 0.031 ± 0.085; for A29I, -0.258 ± 0.25; for A29S, -0.09 ± 0.086. Then A5L, with 0.019 ± 0.065.

Take A5E: the abundance fitness is -0.155 ± 0.26. With A5R, the abundance fitness was -0.121 ± 0.19. A5G: the abundance fitness is -0.033 ± 0.085. For A5T the value was -0.002 ± 0.23; for A5M, 0.109 ± 0.099.

Consider K16H, for which the abundance fitness was -0.077 ± 0.045. Then K16Y, with -0.195 ± 0.091. For K16F the value was -0.284 ± 0.058; for K16I, -0.192 ± 0.1. Take E72A: the abundance fitness was -0.31 ± 0.03.

E72D: the abundance fitness is -0.111 ± 0.042. Then E72L, with -0.363 ± 0.024; and E72R, with -0.526 ± 0.035; and E72H, with -0.378 ± 0.053. Then E72C, with -0.175 ± 0.051; and S40Q, with -0.287 ± 0.15. As for S40M, the abundance fitness is -0.29 ± 0.12. Regarding S40C, the abundance fitness was -0.066 ± 0.12. Regarding S40W, the abundance fitness was -0.42 ± 0.23.

Take S40V: the abundance fitness was -0.354 ± 0.08. For S40F the value was -0.468 ± 0.11; for E69G, -0.194 ± 0.049; for E69Q, -0.091 ± 0.061. Then E69H, with -0.332 ± 0.15. Then E69M, with -0.041 ± 0.048; and E69A, with 0.04 ± 0.048; and E69Y, with -0.059 ± 0.069. Turning to E69V, the abundance fitness is -0.046 ± 0.037.

Consider E69T, for which the abundance fitness is -0.075 ± 0.04. For R46P the value was -1.17 ± 0.14; for R46Q, -0.011 ± 0.077; for R46K, 0.055 ± 0.074. For R46H the value was -0.056 ± 0.091; for R46Y, -0.106 ± 0.18. Then R46T, with -0.661 ± 0.083; and L39G, with -0.912 ± 0.23; and L39R, with -0.606 ± 0.15. Take L39F: the abundance fitness was -0.687 ± 0.5.

On to L39W, for which the abundance fitness is -0.596 ± 0.37.

Consider L28G, for which the abundance fitness is -0.813 ± 0.22. Then L28D, with -0.716 ± 0.16.

Consider L28R, for which the abundance fitness is -1.06 ± 0.47. Then I44V, with 0.08 ± 0.16. For Q12E, the abundance fitness is 0.07 ± 0.31.

For Q12S, the abundance fitness is -0.083 ± 0.047. Then Q12K, with -0.115 ± 0.062; and Q12T, with -0.113 ± 0.056; and Q12M, with -0.034 ± 0.048.

On to Q12D, for which the abundance fitness worked out at 0.012 ± 0.17. For Q12L the value was -0.066 ± 0.032; for A66T, -0.074 ± 0.18. As to A66R, the abundance fitness was -0.133 ± 0.08. A66G: the abundance fitness is -0.013 ± 0.092. For A66K the value was 0.079 ± 0.12.

As to A66E, the abundance fitness came to 0.053 ± 0.09. Then Q65C, with -0.1 ± 0.21; and Q65K, with -0.011 ± 0.41; and Q65H, with -0.076 ± 0.2. Take Q65G: the abundance fitness was found to be 0.011 ± 0.14. Regarding K11N, the abundance fitness is -0.88 ± 0.24. For K11L the value was -0.449 ± 0.037; for K11Y, -0.474 ± 0.077; for Q21R, -0.31 ± 0.17. With Q21F, the abundance fitness is -0.413 ± 0.11. Then Q21C, with -0.243 ± 0.34; and Q21M, with -0.502 ± 0.17; and Q21I, with -0.035 ± 0.07. For Q21D the value was -0.262 ± 0.42; for Q21W, -0.331 ± 0.094; for Q21G, -0.429 ± 0.15. Turning to T20G, the abundance fitness is -0.25 ± 0.03. Then T20H, with -0.221 ± 0.068. For the variant T20K, the abundance fitness is -0.183 ± 0.031.

Turning to T20D, the abundance fitness is -0.562 ± 0.19. For T20A the value was -0.229 ± 0.031; for T20I, -0.623 ± 0.37. Then T43S, with -0.2 ± 0.055; and T43M, with -0.053 ± 0.086; and T43A, with -0.148 ± 0.055.

Consider T43W, for which the abundance fitness was -0.382 ± 0.14. For T43V the value was -0.031 ± 0.045; for R1F, -0.142 ± 0.092; for R1G, 0.002 ± 0.041.

Consider R1A, for which the abundance fitness was -0.282 ± 0.14. With R1L, the abundance fitness was -0.125 ± 0.049. Then R1K, with -0.226 ± 0.11; and R1W, with -0.164 ± 0.052.

For R1N, the abundance fitness was -0.153 ± 0.2. Then R9N, with -0.016 ± 0.1; and R9K, with 0.022 ± 0.047; and R9I, with -0.192 ± 0.084. R9G: the abundance fitness was -0.198 ± 0.13.

For R9S, the abundance fitness came to 0.007 ± 0.083. For R9T the value was 0.016 ± 0.054. For G37V the value was -0.039 ± 0.074. Then G37Y, with 0.024 ± 0.43; and G37L, with -0.172 ± 0.11; and G37E, with 0.038 ± 0.057. As to G37Q, the abundance fitness worked out at 0.003 ± 0.057. For G37W the value was -0.669 ± 0.26; for A71V, -0.073 ± 0.036.

Consider A71E, for which the abundance fitness was -0.103 ± 0.05. Then A71M, with -0.106 ± 0.026; and A71R, with -0.005 ± 0.043; and A71D, with -0.574 ± 0.12. Then V63K, with -0.35 ± 0.34.

With V63D, the abundance fitness was -0.585 ± 0.27.

On to V63M, for which the abundance fitness was -0.085 ± 0.093. Then V63R, with -0.157 ± 0.049. For V63S the value was -0.162 ± 0.12; for T51R, 0.028 ± 0.058; for T51W, -0.406 ± 0.036. For the variant T51A, the abundance fitness is -0.041 ± 0.056. Then T51H, with -0.201 ± 0.21; and G25S, with -0.13 ± 0.13; and G25W, with -0.317 ± 0.14. Then G25M, with -0.27 ± 0.11; and G25Q, with -0.531 ± 0.36. Turning to G25L, the abundance fitness was -0.159 ± 0.097.

G25D: the abundance fitness was -0.392 ± 0.25. For S49Q the value was -0.027 ± 0.075; for S49C, -0.127 ± 0.12.

For the variant S49K, the abundance fitness was -0.039 ± 0.1. In the case of S49R, the abundance fitness is -0.136 ± 0.066.

For the variant S49P, the abundance fitness was -0.957 ± 0.14.

With S49T, the abundance fitness stood at 0.037 ± 0.06. Then L31V, with 0.086 ± 0.12.

Turning to L31E, the abundance fitness was found to be 0.143 ± 0.37. For L31D the value was 0 ± 0.49; for L31A, 0.204 ± 0.23; for L31T, -0.094 ± 0.48. For L31F the value was -0.034 ± 0.14. For L31G the value was -0.59 ± 0.42; for F10G, -1.03 ± 0.068; for F10V, -0.765 ± 0.1.

Turning to A7P, the abundance fitness was -0.579 ± 0.042.

Take A7K: the abundance fitness was -0.398 ± 0.2. For A7R the value was -0.695 ± 0.032; for A7H, -0.707 ± 0.099.

With A7L, the abundance fitness is -0.581 ± 0.034.

K61Y: the abundance fitness was -0.038 ± 0.058. For K61F the value was -0.36 ± 0.055; for K61L, -0.217 ± 0.044. For G35F the value was -0.231 ± 0.14; for G35P, -0.285 ± 0.06. For R14L, the abundance fitness is -0.805 ± 0.058. Then R14I, with -0.656 ± 0.19. Then R14A, with -1.1 ± 0.18. Take R14V: the abundance fitness was -0.759 ± 0.071. As to R14F, the abundance fitness is -1.11 ± 0.22. E4G: the abundance fitness is -0.197 ± 0.033. Turning to E4L, the abundance fitness is -0.214 ± 0.064. Then E4Y, with -0.125 ± 0.07.

The record behind these values is the Human Domainome abundance scans (Beltran et al. 2025).
